This note sets out measurements from article doi:10.1101/2025.03.12.642377 (bioRxiv, 2025).

In this experiment the target is PACRG-mNeonGreen-6xHis (C. reinhardtii, UniProt B1B601 1-307). The experiment is described as follows: pull-down.

B1: FAP20-mRuby3 (His-tag cleaved) (natural protein, C. reinhardtii, UniProt A8IU92 1-190, looked up)
chain: MFKNAFQSGFLSVLYSIGSKPLEIWDKQVSNGHIKRITDADIQSSVLEIMGQNVSTTYITCPADPNKTLGIKLPFLVLIIKNLNKYFSFEVQVLDDKNVRRRFRASNYQSTTRVKPFICTMPMRLDSGWNQIQFNLSDFTRRAYGTNYIETLRVQVHANCRIRRIYFSDRLYSEEELPAEFKLFLPIQKS
For the molecule B1, the binding result is “binds”.
